This assay addresses T1, anti-ABD goat antibody (produced in-house).
T1 construct: also called Anti-ABD surface
Description: SPR Biacore 2000, periplasmic sample over immobilised anti-ABD goat antibody. As for the experimental part:
A selection of Aβ peptide binding polypeptides was subjected to an analysis of the response against biotinylated hAβ₁₋₄₀ using a Biacore 2000 instrument (GE Healthcare). Biotinylated anti-ABD goat antibody (produced in-house) and N-terminally biotinylated hAβ₁₋₄₀ (AnaSpec cat. no. AS-24648) were immobilized in separate flow cells on a streptavidin coated chip (Biacore Sensor Chip SA, cat. no. BR100032) using HBS-EP as running buffer (0.01 M HEPES pH 7.4, 0.15 M NaCl, 3 mM EDTA, 0.005% v/v Surfactant P20, GE Healthcare, cat. no. BR100188). The ligand immobilization levels on the surfaces were approximately 2000 RU for the anti-ABD antibody and 225 RU for hAβ₁₋₄₀. One flow cell surface on the chip was used as blank during analyte injections. HBS-EP was used as running buffer and the flow rate was 25 μl/min. The analytes, i.e. periplasmic preparations of Aβ peptide binding polypeptides as described above, were each diluted 15× in HBS-EP buffer and injected for 10 min, followed by dissociation in running buffer for 5 min. After dissociation, the surfaces were regenerated with 2 pulses of 10 mM glycin pH 2.0. […]
The interactions of a subset of Z variants with anti-ABD goat antibody and hAβ₁₋₄₀ were analyzed in a Biacore instrument by injecting dilutions of periplasmic samples.

Experimental findings from patent publication US20180057551A1 (AMYLONIX, published 2018) are described below.

B1: albumin binding domain GA3 from streptococcal Protein G (ABD), periplasmic control (other)
chain: LAEAKVLANRELDKYGVSDYYKNLINNAKTVEGVKALIDEILAALP
notes: periplasm containing ABD only; also called negative control; blank control
In the case of B1, the “Response RU” value turned out to be 19.8 RU.
